This is an account of results in PMC8555152.

The assay concerns the target microtubule associated protein 1 light chain 3 (LC3), endogenous (human (endogenous in HEK293T)) (UniProt Q9GZQ8). As to the kind of experiment: co-IP.

Take “HIV-1 NL4-3 Gag (p55), expressed from the provirus (natural protein)”: the reduction of the binding in SQSTM1-depleted cells relative to the control siRNA is 50%.
